According to patent US20150224191A1 (VEGENICS, published 2015):

What was measured:
[1] = target: T1, VEGF-C Dimer (Homodimer of two identical chains. The nature of the dimer linkage is not stated in the passages seen.); experiment: direct binding ELISA, antigen coated as capture antigen, bound VGX-100 detected with rabbit anti-human IgG-HRP, Abs 450 nm
T1 construct: a form of m2; also called dimer form of VEGF-C
T1 chain 1: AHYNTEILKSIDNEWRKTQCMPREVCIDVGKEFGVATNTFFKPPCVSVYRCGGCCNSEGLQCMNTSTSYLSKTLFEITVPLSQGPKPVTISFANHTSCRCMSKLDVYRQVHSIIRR
T1 chain 2: T1 chain 1

[2] = target: T2, VEGF-C Monomer; experiment: as above
T2 construct: a form of m2; also called monomer form of VEGF-C
T2 chain: T1 chain 1

[3] = target: T3, VEGF-C (human, UniProt P49767 103-227, limits assumed); experiment: cell-based or functional assay
T3 sequence: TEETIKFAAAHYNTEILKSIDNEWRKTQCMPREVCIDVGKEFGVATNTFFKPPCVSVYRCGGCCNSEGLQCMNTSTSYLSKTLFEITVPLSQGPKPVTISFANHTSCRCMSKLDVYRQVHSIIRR

[4] = target: T3, VEGF-C; experiment: BiaCore (SPR); format not described
[5] = target: T3, VEGF-C; experiment: cell-based or functional assay; remark: listed apart in the source

EC50 (read off the curve) [1]: ~0.001 µg/mL
EC50 (read off the curve) [2]: ~0.001 µg/mL
IC50 (read off the curve); [3H]-thymidine incorporation of BA/F3-VEGFR-3/EpoR cells as percent of ligand alone; blocked: VEGF-C binding to VEGFR-3 [3]: ~0.04 µg/mL
Kd [4]: 1.8 nM
IC50 (read off the curve); [3H]-thymidine incorporation of BA/F3-VEGFR-2/EpoR cells as percent of ligand alone; blocked: VEGF-C binding to VEGFR-2 [5]: ~0.03 µg/mL
B1: VEGF-C antibody VGX-100 (antibody, human IgG1, lambda, V domains shown)
VH: EVRLLESGGGLVQPGGSLRLSCAASGFTFRPRAMAWVRQAPGKGLEWVSSISAQGASAYYADSVKGRFTISRDNSKNTLYLQMNSLRAEDTAVYYCARDLSVSGFGPWGRGTMVTVSS
VL: SYELTQPPSSSGTPGQRVTISCSGSSSNIGRHTVSWYQQVPGTAPKLLIYSDDHRPSGVPDRFSASKSGTSASLTITGLQSEDEADYYCAAWDDSLNGPWVFGGGTKLTVLG
